Source: US10064929B2, “Peptides and combination of peptides for use in immunotherapy against breast cancer and other cancers” (immatics biotechnologies GmbH, priority 2015, dated 2018)
Square brackets hold non-standard residues; d marks the D form. Ends that are not written are not given here. pT = C[C@@H](OP(=O)(O)O)[C@H](N)C(=O)O

Tests used:
HLA-A*02:01 = HLA-A*02:01 (Homo sapiens, UniProt P04439, D140Y/D185E/D98H/E176V/E277Q/G131W/G231S/I119V/I121R/I166T/I218V/L300P/L318F/N151K/N90K/P208A/P217A/Q86G/Q94H/R138H/R169H/T345S); experiment: MHC binding assay: UV-ligand exchange with β2m ELISA; details: binding to HLA-A*02:01
Description: Candidate peptides for T cell based therapies according to the present invention were further tested for their MHC binding capacity (affinity). The individual peptide-MHC complexes were produced by UV-ligand exchange, where a UV-sensitive peptide is cleaved upon UV-irradiation, and exchanged with the peptide of interest as analyzed. Only peptide candidates that can effectively bind and stabilize the peptide-receptive MHC molecules prevent dissociation of the MHC complexes. To determine the yield of the exchange reaction, an ELISA was performed based on the detection of the light chain (β2m) of stabilized MHC complexes. The assay was performed as generally described in Rodenko et al. (Rodenko et al., 2006).
96 well MAXISorp plates (NUNC) were coated over night with 2 ug/ml streptavidin in PBS at room temperature, washed 4× and blocked for 1 h at 37° C. in 2% BSA containing blocking buffer. Refolded HLA-A*02:01/MLA-001 monomers served as standards, covering the range of 15-500 ng/ml. Peptide-MHC monomers of the UV-exchange reaction were diluted 100-fold in blocking buffer. Samples were incubated for 1 h at 37° C., washed four times, incubated with 2 ug/ml HRP conjugated anti-β2m for 1 h at 37° C., washed again and detected with TMB solution that is stopped with […]. Absorption was measured at 450 nm. Candidate peptides that show a high exchange yield (preferably higher than 50%, most preferred higher than 75%) are generally preferred for a generation and production of antibodies or fragments thereof, and/or T cell receptors or fragments thereof, as they show sufficient avidity to the MHC molecules and prevent dissociation of the MHC complexes.

CD8+ T cells = experiment: In vitro T-cell priming with aAPCs loaded with peptide/MHC complexes and anti-CD28 antibody, pMHC multimer readout; format: cell-based, human; details: for Wells positive [%] (in vitro immunogenicity): HLA-A*02 restricted peptides, positive wells among evaluable, healthy donors; for wells (in vitro immunogenicity, positive wells): HLA class I peptides, CD8+ T cells of healthy HLA-A*02 donors
Description: In order to obtain information regarding the immunogenicity of the TUMAPs of the present invention, the inventors performed investigations using an in vitro T-cell priming assay based on repeated stimulations of CD8+ T cells with artificial antigen presenting cells (aAPCs) loaded with peptide/MHC complexes and anti-CD28 antibody.
In order to perform in vitro stimulations by artificial antigen presenting cells loaded with peptide-MHC complex (pMHC) and anti-CD28 antibody, the inventors first isolated CD8+ T cells from fresh HLA-A*02 leukapheresis products via positive selection using CD8 microbeads (Miltenyi Biotec, Bergisch-Gladbach, Germany) of healthy donors obtained from the University clinics Mannheim, Germany, after informed consent.
PBMCs and isolated CD8+ lymphocytes were incubated in T-cell medium (TCM) until use consisting of RPMI-Glutamax (Invitrogen, Karlsruhe, Germany) supplemented with 10% heat inactivated human AB serum (PAN-Biotech, Aidenbach, Germany), 100 U/ml Penicillin/100 μg/ml Streptomycin (Cambrex, Cologne, Germany), 1 mM sodium pyruvate (CC Pro, Oberdorla, Germany), 20 μg/ml Gentamycin (Cambrex). 2.5 ng/ml IL-7 (PromoCell, Heidelberg, Germany) and 10 U/ml IL-2 (Novartis Pharma, Nürnberg, Germany) were also added to the TCM at this step.
Generation of pMHC/anti-CD28 coated beads, T-cell stimulations and readout was performed in a highly defined in vitro system using four different pMHC molecules per stimulation condition and 8 different pMHC molecules per readout condition.
The purified co-stimulatory mouse IgG2a anti human CD28 Ab 9.3 (Jung et al., 1987) was chemically biotinylated using Sulfo-N-hydroxysuccinimidobiotin as recommended by the manufacturer (Perbio, Bonn, Germany). Beads used were 5.6 μm diameter streptavidin coated polystyrene particles (Bangs Laboratories, Illinois, USA).
800.000 beads/200 μl were coated in 96-well plates in the presence of 4×12.5 ng different biotin-pMHC, washed and 600 ng biotin anti-CD28 were added subsequently in a volume of 200 μl. Stimulations were initiated in 96-well plates by co-incubating 1×10^6 CD8+ T cells with 2×10^5 washed coated beads in 200 μl TCM supplemented with 5 ng/ml IL-12 (PromoCell) for 3 days at 37° C. Half of the medium was then exchanged by fresh TCM supplemented with 80 U/ml IL-2 and incubating was continued for 4 days at 37° C.
This stimulation cycle was performed for a total of three times. For the pMHC multimer readout using 8 different pMHC molecules per condition, a two-dimensional combinatorial coding approach was used as previously described (Andersen et al., 2012) with minor modifications encompassing coupling to 5 different fluorochromes. Finally, multimeric analyses were performed by staining the cells with Live/dead near IR dye (Invitrogen, Karlsruhe, Germany), CD8-FITC antibody clone SK1 (BD, Heidelberg, Germany) and fluorescent pMHC multimers. For analysis, a BD LSRII SORP cytometer equipped with appropriate lasers and filters was used. Peptide specific cells were calculated as percentage of total CD8+ cells. Evaluation of multimeric analysis was done using the FlowJo software (Tree Star, Oregon, USA). In vitro priming of specific multimer+ CD8+ lymphocytes was detected by comparing to negative control stimulations.

| Sequence | Peptide Exchange (MHC class I binding score, peptide exchange yield) (HLA-A*02:01) | Wells positive [%] (in vitro immunogenicity) (CD8+ T cells) | wells (in vitro immunogenicity, positive wells) (CD8+ T cells) |
| --- | --- | --- | --- |
| GLVATLQSL (listed as Homo sapiens) [SEQ ID NO: 32] | “+++” (≥50 = +++) |  |  |
| ILFDVVVFL (listed as Homo sapiens) [SEQ ID NO: 25] | “++” (≥20% = ++) |  |  |
| ALAGSSPQV (listed as Homo sapiens) [SEQ ID NO: 2] | “+++” (≥50 = +++) | “++” (20%-49% = ++) |  |
| SLVEGEAVHLA (listed as Homo sapiens) [SEQ ID NO: 4] | “++” (≥20% = ++) |  |  |
| YIDGLESRV (listed as Homo sapiens) [SEQ ID NO: 22] | “+++” (≥50 = +++) | “+” (<20% = +) |  |
| ALTALQNYL (listed as Homo sapiens) [SEQ ID NO: 6] | “+++” (≥50 = +++) |  |  |
| ALNPVIYTV (listed as Homo sapiens) [SEQ ID NO: 5] | “++” (≥20% = ++) |  |  |
| FIIPTVATA (listed as Homo sapiens) [SEQ ID NO: 7] | “++++” (≥75% = ++++) |  |  |
| SLLTEPALV (listed as Homo sapiens) [SEQ ID NO: 21] | “+++” (≥50 = +++) | “++” (20%-49% = ++) |  |
| SLNDQGYLL (listed as Homo sapiens) [SEQ ID NO: 41] | “+++” (≥50 = +++) |  |  |
| SLADAVEKV (listed as Homo sapiens) [SEQ ID NO: 23] | “+++” (≥50 = +++) | “+++” (50%-69% = +++) |  |
| FLSSEAANV (listed as Homo sapiens) [SEQ ID NO: 30] | “++” (≥20% = ++) |  |  |
| FLDEEVKLI (listed as Homo sapiens) [SEQ ID NO: 43] | “+++” (≥50 = +++) |  |  |
| KMPEHISTV (listed as Homo sapiens) [SEQ ID NO: 1] | “+++” (≥50 = +++) | “+” (<20% = +) |  |
| TLLGLAVNV (listed as Homo sapiens) [SEQ ID NO: 36] | “++++” (≥75% = ++++) |  |  |
| ALEAUQLYL (ALEA[pT]QLYL; listed as Homo sapiens) [SEQ ID NO: 29, U = phospho-threonine] | “+++” (≥50 = +++) |  |  |
| TLSSIKVEV (listed as Homo sapiens) [SEQ ID NO: 50] |  |  | + (<20% = +) |
| KQLELELEV (listed as Homo sapiens) [SEQ ID NO: 14] | “+++” (≥50 = +++) |  |  |
| GLHSLPPEV (listed as Homo sapiens) [SEQ ID NO: 10] | “+++” (≥50 = +++) |  |  |
| GLLPTSVSPRV (listed as Homo sapiens) [SEQ ID NO: 11] | “++” (≥20% = ++) |  |  |
| FMSKLVPAI (listed as Homo sapiens) [SEQ ID NO: 9] | “+++” (≥50 = +++) |  |  |

| Sequence | Peptide Exchange (MHC class I binding score, peptide exchange yield) (HLA-A*02:01) | Wells positive [%] (in vitro immunogenicity) (CD8+ T cells) | wells (in vitro immunogenicity, positive wells) (CD8+ T cells) |
| --- | --- | --- | --- |
| SLFSVPFFL (listed as Homo sapiens) [SEQ ID NO: 28] | “++++” (≥75% = ++++) |  |  |
| FSFPVSVGV (listed as Homo sapiens) [SEQ ID NO: 20] | “+++” (≥50 = +++) |  |  |
| GLVQSLTSI (listed as Homo sapiens) [SEQ ID NO: 8] | “++++” (≥75% = ++++) |  |  |
| SLAEPRVSV (listed as Homo sapiens) [SEQ ID NO: 27] | “+++” (≥50 = +++) |  |  |
| YILLQSPQL (listed as Homo sapiens) [SEQ ID NO: 18] | “+++” (≥50 = +++) |  |  |
| SLAWDVPAA (listed as Homo sapiens) [SEQ ID NO: 26] | “+++” (≥50 = +++) |  |  |
| ILFPDIIARA (listed as Homo sapiens) [SEQ ID NO: 66] |  |  | ++ (20%-49% = ++) |
| LLMUVAGLKL (LLM[pT]VAGLKL; listed as Homo sapiens) [SEQ ID NO: 38, U = phospho-threonine] | “++++” (≥75% = ++++) |  |  |
| SLFPSLVVV (listed as Homo sapiens) [SEQ ID NO: 15] | “+++” (≥50 = +++) |  |  |
| TIASSIEKA (listed as Homo sapiens) [SEQ ID NO: 17] | “++” (≥20% = ++) |  |  |
| KLLDMELEM (listed as Homo sapiens) [SEQ ID NO: 39] | “++++” (≥75% = ++++) |  |  |
| SLYKGLLSV (listed as Homo sapiens) [SEQ ID NO: 51] |  |  | ++ (20%-49% = ++) |
| KAFPFYNTV (listed as Homo sapiens) [SEQ ID NO: 12] | “++” (≥20% = ++) |  |  |
| GLSYIYNTV (listed as Homo sapiens) [SEQ ID NO: 31] | “++” (≥20% = ++) |  |  |
| GLLGFQAEA (listed as Homo sapiens) [SEQ ID NO: 24] | “++++” (≥75% = ++++) | “++” (20%-49% = ++) |  |
| ILTELPPGV (listed as Homo sapiens) [SEQ ID NO: 33] | “++” (≥20% = ++) |  |  |
| FLVEHVLTL (listed as Homo sapiens) [SEQ ID NO: 42] | “++++” (≥75% = ++++) |  |  |
| SMMGLLTNL (listed as Homo sapiens) [SEQ ID NO: 16] | “++++” (≥75% = ++++) |  |  |
| KLYEGIPVL (listed as Homo sapiens) [SEQ ID NO: 13] | “++” (≥20% = ++) |  |  |
| SLLSEIQAL (listed as Homo sapiens) [SEQ ID NO: 35] | “++++” (≥75% = ++++) |  |  |
| ALEEQLHQV (listed as Homo sapiens) [SEQ ID NO: 19] | “++” (≥20% = ++) |  |  |
